In series [1] the target is T1, MRP3 (Homo sapiens, UniProt O15438).
T1 construct: BCRP, MRP1, MRP3, and MRP4 were detected in both wild-type HeLa and HeLa1A9 cells; endogenous in cells
The series is described as follows: shRNA-mediated partial silencing of MRP3 in HeLa1A9 cells, glucuronide excretion. It is filed as cell-based. The following applies: fraxetin 10 μM. On the procedure: (§1) The HeLa1A9 cells were pretreated and incubated with fraxetin solutions as reported previously ([Jiang et al., 2011]). Before assays, the HeLa1A9 cells were washed twice with prewarmed (37°C) Hank’s balanced salt solution (HBSS; pH = 7.4). After that, fraxetin (10 μM) dissolved in 2 mL of HBSS was incubated with the HeLa1A9 cells. At each time point (30, 60, 90, and 120 min), 200 μL of the culture supernatant from each well was collected as samples, and an equal volume of a loading media was used to replenish each well. Next, the collected samples were each mixed with 100 μL ice-cold acetonitrile. The supernatants were subjected to UHPLC analysis after centrifugation (10 min at 13800 × g).
(§2) In glucuronide excretion assays, biological inhibition mainly including shRNA-mediated partial silencing of BCRP and MRPs in HeLa cells was usually performed to evaluate the role of each efflux transporter ([Quan et al., 2015]; [Sun et al., 2015]; [Qin et al., 2018a]). Established shRNA_BCRP, shRNA_MRP1, shRNA_MRP3, and shRNA_MRP4 plasmids were […] transfected into HeLa1A9 cells to develop the stably shRNA-transfected cell lines, named HeLa1A9-BCRP-shRNA cells, HeLa1A9-MRP1-shRNA, HeLa1A9-MRP3-shRNA, and HeLa1A9-MRP4-shRNA cells, respectively. After transfection for 2 days, these engineered HeLa1A9 cells were subjected to fraxetin-O-glucuronide excretion experiments. The control scrambled shRNA served as a negative control.
(§3) In addition, the excretion rate of intracellular glucuronides was calculated using Equ. 2. Fraction metabolized or the fmet value was defined as the fraction of a dose metabolized based on Equ. 3. The fmet value was regarded as the more appropriate parameter to reflect the extent of drug metabolism in intact cells in the presence of a transporter–enzyme interplay.
(§4) (2) Excretion rate=VdC(excretedglucuronide)/dt
(§5) (3) fmet=excreted glucuronide+intracellular glucuronide/dosed aglycone
(§6) where V is the volume of the incubation medium, C is the excreted cumulative concentration of glucuronides, and t denotes the incubation time. Here, dC(excreted glucuronide)/dt describes the changes in glucuronide levels with time.

Series [2] relates to HeLa1A9 cells. The series is described as follows: Glucuronide excretion experiments in HeLa1A9 cells. It is filed as cell-based, human. The protocol: as §1, with “After that, fraxetin (10 μM) dissolved in 2 mL of HBSS was incubated with the HeLa1A9 cells.” left out
as §3, §4, §6

Series [3] addresses T2, MRP4 (Homo sapiens, UniProt O15439).
T2 construct: BCRP, MRP1, MRP3, and MRP4 were detected in both wild-type HeLa and HeLa1A9 cells; endogenous in cells
T2 sequence (O15439 1-1325): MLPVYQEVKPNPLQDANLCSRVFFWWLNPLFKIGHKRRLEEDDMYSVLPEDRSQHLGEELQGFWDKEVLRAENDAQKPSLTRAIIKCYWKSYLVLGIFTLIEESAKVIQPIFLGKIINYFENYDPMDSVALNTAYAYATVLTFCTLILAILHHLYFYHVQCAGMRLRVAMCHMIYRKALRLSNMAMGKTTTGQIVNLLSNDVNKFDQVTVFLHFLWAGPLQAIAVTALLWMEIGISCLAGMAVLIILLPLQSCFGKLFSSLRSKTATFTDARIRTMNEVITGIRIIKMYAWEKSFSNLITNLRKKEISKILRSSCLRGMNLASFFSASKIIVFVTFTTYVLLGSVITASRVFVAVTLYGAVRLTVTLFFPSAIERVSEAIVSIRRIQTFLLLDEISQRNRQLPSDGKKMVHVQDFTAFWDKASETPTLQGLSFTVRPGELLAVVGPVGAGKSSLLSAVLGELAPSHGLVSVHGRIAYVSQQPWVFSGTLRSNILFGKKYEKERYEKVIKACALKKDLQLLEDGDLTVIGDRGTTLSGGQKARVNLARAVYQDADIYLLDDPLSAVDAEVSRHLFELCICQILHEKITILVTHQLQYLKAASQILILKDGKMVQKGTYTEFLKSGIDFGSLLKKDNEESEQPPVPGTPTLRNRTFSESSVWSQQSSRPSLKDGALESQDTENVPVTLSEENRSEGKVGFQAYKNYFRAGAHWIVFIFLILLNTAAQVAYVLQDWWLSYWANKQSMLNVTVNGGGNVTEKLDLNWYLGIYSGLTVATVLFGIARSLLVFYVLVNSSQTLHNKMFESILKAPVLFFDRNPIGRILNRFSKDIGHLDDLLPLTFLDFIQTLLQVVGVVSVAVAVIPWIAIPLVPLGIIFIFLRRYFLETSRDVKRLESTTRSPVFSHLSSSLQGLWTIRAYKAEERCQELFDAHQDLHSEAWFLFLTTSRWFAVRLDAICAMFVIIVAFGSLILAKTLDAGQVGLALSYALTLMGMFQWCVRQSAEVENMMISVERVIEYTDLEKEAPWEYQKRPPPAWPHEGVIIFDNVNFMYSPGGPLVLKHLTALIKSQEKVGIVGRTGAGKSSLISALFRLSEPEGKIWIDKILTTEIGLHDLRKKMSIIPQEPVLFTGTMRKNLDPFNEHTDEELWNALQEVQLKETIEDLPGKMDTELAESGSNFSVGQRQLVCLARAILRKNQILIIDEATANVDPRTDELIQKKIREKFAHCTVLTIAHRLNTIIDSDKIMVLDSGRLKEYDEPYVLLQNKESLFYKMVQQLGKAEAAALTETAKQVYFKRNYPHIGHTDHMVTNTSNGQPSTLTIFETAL
The series is described as follows: shRNA-mediated partial silencing of MRP4 in HeLa1A9 cells, glucuronide excretion. It counts as cell-based. The note with it: fraxetin 10 μM. On the procedure: as §1, §2, §3, §4, §5, §6

Series [4] addresses T3, UGT1A9 (Homo sapiens, UniProt O60656).
T3 sequence (O60656 26-530): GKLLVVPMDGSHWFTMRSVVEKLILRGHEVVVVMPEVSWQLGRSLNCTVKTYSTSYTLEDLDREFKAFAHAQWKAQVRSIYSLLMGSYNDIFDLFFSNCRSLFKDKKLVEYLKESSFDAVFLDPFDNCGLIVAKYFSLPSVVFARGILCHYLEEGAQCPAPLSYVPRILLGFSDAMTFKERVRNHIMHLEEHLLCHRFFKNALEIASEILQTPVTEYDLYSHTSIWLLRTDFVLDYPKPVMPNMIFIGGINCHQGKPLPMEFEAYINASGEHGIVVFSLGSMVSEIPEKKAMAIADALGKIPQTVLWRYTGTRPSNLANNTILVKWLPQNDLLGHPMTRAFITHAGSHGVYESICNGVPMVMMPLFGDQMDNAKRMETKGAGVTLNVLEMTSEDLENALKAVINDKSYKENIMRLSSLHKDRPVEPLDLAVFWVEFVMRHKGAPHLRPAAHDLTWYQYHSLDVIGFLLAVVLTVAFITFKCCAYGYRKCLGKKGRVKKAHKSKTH
The protocol: The incubation system was slightly modified on the basis of a previously published article ([Qin et al., 2018a]). […] After preincubation at 37°C for 5 min, UDPGA (3.5 mM) was added to the reaction system, and the mixture was incubated for another 30 min. These reactions were terminated by the addition of an equal volume of ice-cold acetonitrile. The mixed samples were centrifuged at 13800 × g for 10 min, and the supernatant was analyzed by ultra-high-performance liquid chromatography (UHPLC). All the experiments were conducted in triplicate.
The enzyme kinetic parameters were obtained by fitting appropriate kinetic models to the experimental data in GraphPad Prism V5 software (San Diego, CA, United States). The best model was selected based on visual inspection of the Eadie–Hofstee plots ([Qin et al., 2018b]). In brief, if the Eadie–Hofstee plot was linear, formation rates (V) of glucuronides at different substrate concentrations (C) were fitted to the standard equations (1): […]
Where Km is the Michaelis–Menten constant, and Vmax is the maximum rate of glucuronidation. The intrinsic clearance (CLint) was computed as Vmax/Km.

Substrate in series [5]: CC(C)c1cccc(C(C)C)c1O
Kind of series: cells, lysate or membranes named. The following applies: other: metabolite propofol-G, pH 7.4, 37.0 °C.

Substrate in series [6]: COc1cc2ccc(=O)oc2c(O)c1O
Kind of series: cells, lysate or membranes named. The following applies: UGT1A9 enzyme, pH 7.4, 37.0 °C.

Substrate in series [7]: COc1cc2ccc(=O)oc2c(O)c1O
The series is described as follows: Glucuronidation kinetics by HeLa1A9 cell lysate. It counts as in vitro ADME, human.

Where [8] appears, read: other: metabolite G1, pH 7.4, 37.0 °C.
Setting [9] is: other: metabolite G2, pH 7.4, 37.0 °C.

Usually Km stands for the concentration of substrate that gives half-maximal velocity. Usually Vmax stands for the top rate of the reaction or transport when substrate is in excess.

T1 sequence (O15438 whole entry): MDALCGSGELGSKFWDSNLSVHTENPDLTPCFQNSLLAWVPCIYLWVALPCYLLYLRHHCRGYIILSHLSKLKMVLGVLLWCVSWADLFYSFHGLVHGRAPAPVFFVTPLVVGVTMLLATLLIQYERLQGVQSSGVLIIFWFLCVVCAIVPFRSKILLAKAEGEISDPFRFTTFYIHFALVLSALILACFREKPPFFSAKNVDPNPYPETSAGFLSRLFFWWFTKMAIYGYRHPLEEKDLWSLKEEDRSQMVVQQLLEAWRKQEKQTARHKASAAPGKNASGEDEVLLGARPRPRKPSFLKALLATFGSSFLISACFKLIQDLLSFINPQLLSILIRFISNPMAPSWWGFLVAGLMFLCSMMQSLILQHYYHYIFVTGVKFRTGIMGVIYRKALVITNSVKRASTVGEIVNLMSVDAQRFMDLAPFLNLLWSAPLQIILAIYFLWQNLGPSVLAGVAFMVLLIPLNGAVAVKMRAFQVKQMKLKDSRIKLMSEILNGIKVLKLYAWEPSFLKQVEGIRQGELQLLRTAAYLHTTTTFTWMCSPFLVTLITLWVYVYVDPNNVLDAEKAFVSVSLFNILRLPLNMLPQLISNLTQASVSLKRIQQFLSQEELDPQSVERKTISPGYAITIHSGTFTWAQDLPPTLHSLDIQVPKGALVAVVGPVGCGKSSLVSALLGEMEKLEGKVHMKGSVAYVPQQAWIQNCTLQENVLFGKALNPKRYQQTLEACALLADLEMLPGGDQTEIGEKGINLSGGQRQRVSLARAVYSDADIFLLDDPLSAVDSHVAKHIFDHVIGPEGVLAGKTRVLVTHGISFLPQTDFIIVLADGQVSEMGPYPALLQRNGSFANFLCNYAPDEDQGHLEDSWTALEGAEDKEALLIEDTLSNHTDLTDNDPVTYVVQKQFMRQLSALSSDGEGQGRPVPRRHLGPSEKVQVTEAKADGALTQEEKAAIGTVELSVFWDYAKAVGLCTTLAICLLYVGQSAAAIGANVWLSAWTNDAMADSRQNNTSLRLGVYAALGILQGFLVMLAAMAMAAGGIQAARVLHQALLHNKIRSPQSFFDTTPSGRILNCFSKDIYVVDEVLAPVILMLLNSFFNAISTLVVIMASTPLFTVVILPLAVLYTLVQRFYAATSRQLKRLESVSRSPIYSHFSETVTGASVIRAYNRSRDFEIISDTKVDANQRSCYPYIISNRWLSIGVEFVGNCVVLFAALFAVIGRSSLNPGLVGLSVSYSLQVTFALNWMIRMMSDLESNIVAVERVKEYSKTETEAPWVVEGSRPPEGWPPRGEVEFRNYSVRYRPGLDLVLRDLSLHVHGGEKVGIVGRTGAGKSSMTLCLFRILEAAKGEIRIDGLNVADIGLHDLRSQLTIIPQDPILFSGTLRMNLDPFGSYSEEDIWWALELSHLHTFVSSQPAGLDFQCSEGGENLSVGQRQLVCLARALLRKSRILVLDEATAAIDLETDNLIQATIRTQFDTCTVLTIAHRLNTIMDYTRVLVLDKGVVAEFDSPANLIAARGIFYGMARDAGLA

For `COc1cc2ccc(=O)oc2c(O[C@@H]2O[C@H](C(=O)O)[C@@H](O)[C@H](O)[C@H]2O)c1O` [G1, fraxetin-8-O-glucuronide], in series [1] (MRP3 knockdown), the “decrease in fraction metabolized (fmet; overall cellular glucuronidation)” value came to 24.1% and the “reduction in excretion rate” value was 29.1%. For the same molecule, the “reduction in excreted glucuronide” value in series [1] (MRP3 knockdown, HeLa1A9 cells) is 19.8–39.4%. Besides, in series [1] (MRP3 silencing), the “elevation of intracellular glucuronide level” value is reported as 30.2%. Also, the “excretion with elevation of the fraxetin concentration” value in series [2] (fraxetin 5, 10 and 20 μM, HeLa1A9 cells) is listed as “markedly increased”. In series [3], the “decrease in fraction metabolized (fmet)” value was 22.7%, the “elevation of intracellular glucuronide” value came out at 42.0% and the “reduction in excretion rate” value stood at 34.8%. For the same molecule, the “decreased excretion of glucuronide” value in series [3] (HeLa1A9 cells) was 33.6–51.1%. Further, the Km in series [4] fell in the range of 8 to 16 µM.
Regarding `CC(C)c1cccc(C(C)C)c1O[C@@H]1O[C@H](C(=O)O)[C@@H](O)[C@H](O)[C@H]1O` [propofol-O-glucuronide], the excretion rate stood at 0.053 pmol/min in series [2] (propofol 40 μM incubated with HeLa1A9 cells) and 0.070 pmol/min in series [2] (propofol 80 μM incubated with HeLa1A9 cells).

B1: UGT1A9 (Homo sapiens) (protein)
chain: GKLLVVPMDGSHWFTMRSVVEKLILRGHEVVVVMPEVSWQLGRSLNCTVKTYSTSYTLEDLDREFKAFAHAQWKAQVRSIYSLLMGSYNDIFDLFFSNCRSLFKDKKLVEYLKESSFDAVFLDPFDNCGLIVAKYFSLPSVVFARGILCHYLEEGAQCPAPLSYVPRILLGFSDAMTFKERVRNHIMHLEEHLLCHRFFKNALEIASEILQTPVTEYDLYSHTSIWLLRTDFVLDYPKPVMPNMIFIGGINCHQGKPLPMEFEAYINASGEHGIVVFSLGSMVSEIPEKKAMAIADALGKIPQTVLWRYTGTRPSNLANNTILVKWLPQNDLLGHPMTRAFITHAGSHGVYESICNGVPMVMMPLFGDQMDNAKRMETKGAGVTLNVLEMTSEDLENALKAVINDKSYKENIMRLSSLHKDRPVEPLDLAVFWVEFVMRHKGAPHLRPAAHDLTWYQYHSLDVIGFLLAVVLTVAFITFKCCAYGYRKCLGKKGRVKKAHKSKTH
Consider B1, for which the Km in series [5] (UGT1A9 enzyme) was found to be 53 ± 6 µM. Besides, in series [6] (other: metabolite G1), the Michaelis-Menten constant (Km) turned out to be 16 ± 2 µM, the Vmax stood at 0.00292 µmol/min/mg and the Vmax/Km amounted to 180 µL/min/mg. In series [6] (other: metabolite G2), the Km was found to be 10 ± 1 µM, the Vmax stood at 0.00144 µmol/min/mg and the Vmax/Km is 150 µL/min/mg.

B2: HeLa1A9 cell lysate (Homo sapiens) (protein)
chain: GKLLVVPMDGSHWFTMRSVVEKLILRGHEVVVVMPEVSWQLGRSLNCTVKTYSTSYTLEDLDREFKAFAHAQWKAQVRSIYSLLMGSYNDIFDLFFSNCRSLFKDKKLVEYLKESSFDAVFLDPFDNCGLIVAKYFSLPSVVFARGILCHYLEEGAQCPAPLSYVPRILLGFSDAMTFKERVRNHIMHLEEHLLCHRFFKNALEIASEILQTPVTEYDLYSHTSIWLLRTDFVLDYPKPVMPNMIFIGGINCHQGKPLPMEFEAYINASGEHGIVVFSLGSMVSEIPEKKAMAIADALGKIPQTVLWRYTGTRPSNLANNTILVKWLPQNDLLGHPMTRAFITHAGSHGVYESICNGVPMVMMPLFGDQMDNAKRMETKGAGVTLNVLEMTSEDLENALKAVINDKSYKENIMRLSSLHKDRPVEPLDLAVFWVEFVMRHKGAPHLRPAAHDLTWYQYHSLDVIGFLLAVVLTVAFITFKCCAYGYRKCLGKKGRVKKAHKSKTH
notes: expressed in transfected cells; host or cells: HeLa cells stably transfected with the UGT1A9 gene (HeLa1A9); lysate supernatant
Consider B2, for which the figures for the Km in series [5] (HeLa1A9 cell lysate), in series [7] (setting [8]) and in series [7] (setting [9]) were 59 ± 13 µM, 13 ± 2 µM and 8 ± 1 µM, respectively. Moreover, the figures for the Vmax in series [7] (setting [8]) and in series [7] (setting [9]) were 0.00011 ± 5e-06 µmol/min/mg and 4.2e-05 ± 2e-06 µmol/min/mg, respectively. Moreover, the results for the Vmax/Km in series [7] (setting [8]) and in series [7] (setting [9]) were 9 ± 1 µL/min/mg and 5 ± 1 µL/min/mg, respectively.

For the origin of these results see article PMC6515931, “The Efflux Mechanism of Fraxetin-O-Glucuronides in UGT1A9-Transfected HeLa Cells: Identification of Multidrug Resistance-Associated Proteins 3 and 4 (MRP3/4) as the Important Contributors” (Frontiers in Pharmacology, 2019).
